Data from patent US20190177411.

Key:
[1] = molecular target: purified recombinant His-tagged PDK2 (Abcam), Q15119
[2] = molecular target: purified recombinant His-tagged PDK4 (Abcam), Q16654
[3] = molecular target: purified recombinant His-tagged PDK1 (Abcam)
[4] = molecular target: Flag-tagged wild type (WT) PDK1 (not specifically T346-phosphorylated: from normoxic PC3 cells, or dephosphorylated before the kinase assay)
[5] = molecular target: Flag-tagged T346A PDK1 mutant
[6] = molecular target: purified recombinant His-tagged PDK3 (Abcam), Q15120
Sequence of purified recombinant His-tagged PDK3 (Abcam), Q15120 (Q15120 whole entry, looked up): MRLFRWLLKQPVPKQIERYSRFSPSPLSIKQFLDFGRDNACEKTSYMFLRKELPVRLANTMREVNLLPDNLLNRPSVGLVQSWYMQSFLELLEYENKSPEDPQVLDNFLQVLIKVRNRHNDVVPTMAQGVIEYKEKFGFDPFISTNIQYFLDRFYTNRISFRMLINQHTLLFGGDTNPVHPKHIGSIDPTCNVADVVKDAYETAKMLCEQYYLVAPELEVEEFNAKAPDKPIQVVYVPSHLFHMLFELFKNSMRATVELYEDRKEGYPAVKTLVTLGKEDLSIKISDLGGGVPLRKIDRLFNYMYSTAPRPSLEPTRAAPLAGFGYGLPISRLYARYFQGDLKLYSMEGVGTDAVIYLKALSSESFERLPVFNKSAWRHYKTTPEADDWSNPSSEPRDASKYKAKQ

Sequence of purified recombinant His-tagged PDK1 (Abcam) (chain, as listed by the source): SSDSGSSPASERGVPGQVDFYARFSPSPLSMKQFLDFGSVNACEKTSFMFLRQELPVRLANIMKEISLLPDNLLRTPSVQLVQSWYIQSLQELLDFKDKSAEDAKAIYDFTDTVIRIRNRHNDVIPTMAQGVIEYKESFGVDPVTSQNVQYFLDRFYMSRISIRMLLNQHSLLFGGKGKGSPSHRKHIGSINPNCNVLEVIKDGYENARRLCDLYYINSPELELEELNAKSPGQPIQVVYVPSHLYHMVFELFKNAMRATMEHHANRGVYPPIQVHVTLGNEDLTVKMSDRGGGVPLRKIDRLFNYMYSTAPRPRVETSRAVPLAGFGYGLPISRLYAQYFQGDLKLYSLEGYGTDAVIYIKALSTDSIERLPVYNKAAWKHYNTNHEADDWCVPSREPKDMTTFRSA
Sequence of purified recombinant His-tagged PDK4 (Abcam), Q16654 (Q16654 10-411): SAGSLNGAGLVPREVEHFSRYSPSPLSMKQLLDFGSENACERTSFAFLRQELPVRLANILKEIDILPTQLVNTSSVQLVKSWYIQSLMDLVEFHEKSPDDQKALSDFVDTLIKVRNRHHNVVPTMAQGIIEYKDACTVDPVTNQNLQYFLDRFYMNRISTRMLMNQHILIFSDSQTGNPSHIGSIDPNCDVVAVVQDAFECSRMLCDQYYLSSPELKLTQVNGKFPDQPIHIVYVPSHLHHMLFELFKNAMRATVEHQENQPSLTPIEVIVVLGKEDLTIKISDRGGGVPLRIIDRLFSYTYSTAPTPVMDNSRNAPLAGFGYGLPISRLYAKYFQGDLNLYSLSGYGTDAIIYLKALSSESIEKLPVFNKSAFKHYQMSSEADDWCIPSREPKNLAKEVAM
Sequence of Flag-tagged T346A PDK1 mutant (chain, as listed by the source T346A): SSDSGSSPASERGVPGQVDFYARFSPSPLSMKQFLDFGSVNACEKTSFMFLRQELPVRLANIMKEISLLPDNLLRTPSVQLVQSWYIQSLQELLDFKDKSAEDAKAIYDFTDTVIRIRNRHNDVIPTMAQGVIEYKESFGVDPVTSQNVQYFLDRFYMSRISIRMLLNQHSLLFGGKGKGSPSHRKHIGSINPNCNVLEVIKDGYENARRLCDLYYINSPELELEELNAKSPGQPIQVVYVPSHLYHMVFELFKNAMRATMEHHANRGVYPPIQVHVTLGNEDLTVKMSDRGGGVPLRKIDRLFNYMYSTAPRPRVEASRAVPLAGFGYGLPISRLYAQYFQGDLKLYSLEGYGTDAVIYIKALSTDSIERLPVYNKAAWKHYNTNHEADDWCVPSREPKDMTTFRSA
Sequence of Flag-tagged wild type (WT) PDK1 (not specifically T346-phosphorylated: from normoxic PC3 cells, or dephosphorylated before the kinase assay) (chain, as listed by the source): as the sequence (chain, as listed by the source) above

B1: kinase active Akt2 (SignalChem) (protein)
chain: MNEVSVIKEGWLHKRGEYIKTWRPRYFLLKSDGSFIGYKERPEAPDQTLPPLNNFSVAECQLMKTERPRPNTFVIRCLQWTTVIERTFHVDSPDEREEWMRAIQMVANSLKQRAPGEDPMDYKCGSPSDSSTTEEMEVAVSKARAKVTMNDFDYLKLLGKGTFGKVILVREKATGRYYAMKILRKEVIIAKDEVAHTVTESRVLQNTRHPFLTALKYAFQTHDRLCFVMEYANGGELFFHLSRERVFTEERARFYGAEIVSALEYLHSRDVVYRDIKLENLMLDKDGHIKITDFGLCKEGISDGATMKTFCGTPEYLAPEVLEDNDYGRAVDWWGLGVVMYEMMCGRLPFYNQDHERLFELILMEEIRFPRTLSPEAKSLLAGLLKKDPKQRLGGGPSDAKEVMEHRFFLSINWQDVVQKKLLPPFKPQVTSEVDTRYFDDEFTAQSITITPPDRYDSLGLLELDQRTHFPQFSYSASIRE
phosphorylation in a kinase assay, Western blotting with Akt cons Ab [1]: related PDK2, PDK3 or PDK4 isoforms were unreactive | phosphorylation in a kinase assay, Western blotting with Akt cons Ab [2]: related PDK2, PDK3 or PDK4 isoforms were unreactive | phosphorylation in a kinase assay, Western blotting with Akt cons Ab [3]: active Akt1 or Akt2 readily phosphorylated PDK1 | phosphorylation site by LC-MS/MS of chymotrypsin digests after a kinase assay [3]: Thr346 (T346) was identified ... as the sole phospho-amino acid modified by Akt1 or Akt2, compared to control | phosphorylation of Flag immune complexes in a kinase assay, Western blotting with Akt cons Ab [4]: active Akt2 phosphorylated wild type (WT) PDK1 | phosphorylation of Flag immune complexes in a kinase assay, Western blotting with Akt cons Ab [5]: but not a phosphorylation-defective Thr346→Ala (T346A) PDK1 mutant | phosphorylation in a kinase assay, Western blotting with Akt cons Ab [6]: related PDK2, PDK3 or PDK4 isoforms were unreactive
